Experimental data reported in PMC8476798, “SLURP-1 Controls Growth and Migration of Lung Adenocarcinoma Cells, Forming a Complex With α7-nAChR and PDGFR/EGFR Heterodimer” (Frontiers in Cell and Developmental Biology, 2021).

Key:
[1] = target: nicotinic acetylcholine receptor of α7 type (α7-nAChR) (human (endogenous in A549)) (UniProt P36544); settings: scale: % of viable cells relative to the control
[2] = target: nicotinic acetylcholine receptor of α7 type (α7-nAChR) (human (endogenous in A549)) (UniProt P36544)
[3] = target: nicotinic acetylcholine receptor of α7 type (α7-nAChR) (human (endogenous in A549)) (UniProt P36544); remark: listed apart in the source
[4] = target: nicotinic acetylcholine receptor of α7 type (α7-nAChR) (human (endogenous in A549)) (UniProt P36544); remark: listed apart in the source
[5] = target: nicotinic acetylcholine receptor of α7 type (α7-nAChR) (human (endogenous in A549), UniProt P36544 23-502); assay: cell-based or functional assay
Sequence of nicotinic acetylcholine receptor of α7 type (α7-nAChR) (P36544 23-502): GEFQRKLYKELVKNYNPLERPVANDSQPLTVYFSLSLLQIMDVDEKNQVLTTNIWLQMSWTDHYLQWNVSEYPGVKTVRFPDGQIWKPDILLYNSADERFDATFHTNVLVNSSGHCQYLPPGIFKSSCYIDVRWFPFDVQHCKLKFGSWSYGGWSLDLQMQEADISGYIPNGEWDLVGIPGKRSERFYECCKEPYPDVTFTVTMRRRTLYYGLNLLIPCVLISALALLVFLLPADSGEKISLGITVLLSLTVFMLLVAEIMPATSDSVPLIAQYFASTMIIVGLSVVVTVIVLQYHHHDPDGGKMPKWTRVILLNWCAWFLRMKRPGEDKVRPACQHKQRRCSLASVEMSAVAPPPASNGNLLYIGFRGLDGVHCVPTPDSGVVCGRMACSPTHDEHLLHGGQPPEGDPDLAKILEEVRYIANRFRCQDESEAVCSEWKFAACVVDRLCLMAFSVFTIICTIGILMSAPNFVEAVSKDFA

Sequence of nicotinic acetylcholine receptor of α7 type (α7-nAChR) (human (endogenous in A549)) (P36544 23-502): as above

Molecule: chimeric protein NTII/SL-1(I)
- antiproliferative activity in A549 cells, WST-1 test, 48 h with 1 μM protein, % of viable cells relative to the control [1]: 70

Molecule: synthetic peptide “loop III” with the sequence of loop III of SLURP-1
- IC50 of inhibition of ACh-evoked currents at human α7-nAChRs expressed in X. laevis oocytes (two-electrode voltage clamp, 100 μM ACh) [2]: > 250000 nM

Molecule: synthetic peptide “loop I” mimicking loop I of SLURP-1
- EC50 of the decrease of A549 cell viability, WST-1 test, 48 h [3]: 1800 nM
- EC50 of the inhibition of A549 cell migration, scratch assay (control cells without knock-down) [4]: 226 nM
- IC50 of inhibition of ACh-evoked currents at human α7-nAChRs expressed in X. laevis oocytes (two-electrode voltage clamp, 100 μM ACh) [2]: 74000 nM

B1: recombinant analogue of human SLURP-1 (rSLURP-1) (natural protein, UniProt P55000 23-103, looked up)
chain: LKCYTCKEPMTSASCRTITRCKPEDTACMTTLVTVEAEYPFNQSPVVTRSCSSSCVATDPDSIGAAHLIFCCFRDLCNSEL
- EC50 of the decrease of A549 cell viability, WST-1 test, 48 h [5]: 10.1 nM
- IC50 of inhibition of ACh-evoked currents at human α7-nAChRs expressed in X. laevis oocytes (two-electrode voltage clamp, 100 μM ACh) [5]: 12000 nM
